Target: full length native GPC (strain Josiah) expressed on HEK293 cells (Lassa virus, strain Josiah, UniProt P08669)
Assay: flow cytometry on cells
Conditions: one partner purified

Chain of full length native GPC (strain Josiah) expressed on HEK293 cells (P08669 whole entry, looked up): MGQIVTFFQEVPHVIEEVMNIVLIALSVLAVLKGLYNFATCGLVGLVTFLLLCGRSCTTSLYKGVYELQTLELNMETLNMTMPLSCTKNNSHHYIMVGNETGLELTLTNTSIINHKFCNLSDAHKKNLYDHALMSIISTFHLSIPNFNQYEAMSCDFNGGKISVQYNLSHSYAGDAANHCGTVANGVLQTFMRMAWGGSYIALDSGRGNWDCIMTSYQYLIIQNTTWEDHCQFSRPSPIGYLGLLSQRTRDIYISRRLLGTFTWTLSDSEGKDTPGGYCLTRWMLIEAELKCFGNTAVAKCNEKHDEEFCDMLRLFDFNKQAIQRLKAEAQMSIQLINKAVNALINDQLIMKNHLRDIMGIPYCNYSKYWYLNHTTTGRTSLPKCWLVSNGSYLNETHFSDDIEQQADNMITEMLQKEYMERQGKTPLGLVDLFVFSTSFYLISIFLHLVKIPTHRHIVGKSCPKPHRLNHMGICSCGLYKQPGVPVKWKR

B1: 25.10C IgG (antibody, V domains shown)
VH: QVQLQESGGGLVKPGGSLRLSCTASGFNFNKYNMNWVRQAPGKGLEWVSSISALSTYIYYADSLKGRFTVSRDNAKNSLFLQMNSLRDDDTAVYYCAREIRRASTWSADLWGRGTLVTVSS
VL: DIQMTQSPSSLSASVGDRVIITCRASQSISSSLNWYQQKPGKAPKLLIYAAVNLETGVPSRFSGSGFGTDFTLAISNVQPEDFATYYCQQSDTRTFGRGTKLDVK
  binding result: binds
